The record followed here is patent publication US11278600B2, “Human alpha-galactosidase variants” (Codexis, Inc., priority 2014, dated 2022).

Type in all cases: biochemical
Data set [1] in a line: HTP-analysis of supernatants pretreated with acid (MUGal hydrolysis). The following applies: challenge at pH 4.0; activity of the variant/activity of Rd3BB (SEQ ID NO: 13); yeast culture supernatant. The method, boiled down:
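Supernatants from INVSc1 yeast secreting GLA variants were challenged at 37° C. for 1-3 h in McIlvaine buffer at pH 3.3-4.3. Residual activity was then measured on 4 mM MUGal substrate stock at pH 4.8 with citrate buffer pH 4.3, over 30-180 min at 37° C. Reactions were quenched with sodium carbonate and read by fluorescence (Ex 355/Em 448 nm).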

Data set [2] is described as follows: HTP-analysis of yeast culture supernatants, no challenge (MUGal hydrolysis). As to conditions: activity of the variant/activity of Rd3BB (SEQ ID NO: 13), yeast culture supernatant. In outline:
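GLA variants were expressed in INVSc1 yeast grown in SD-Ura broth with glucose at 30° C., and culture supernatants were collected after 66-84 h. Supernatant was mixed with McIlvaine buffer pH 4.8 and MUGal (2 mM stock) in 50 mM citrate, 200 mM KCl, pH 4.6, incubated at 37° C. for 30-180 minutes, then quenched with sodium carbonate.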

Data set [3] is described as follows: HTP-analysis of supernatants pretreated with bovine serum (MUGal hydrolysis). As to conditions: activity of the variant/activity of Rd3BB (SEQ ID NO: 13), yeast culture supernatant. In outline: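 Yeast INVSc1 culture supernatants containing secreted GLA variants were mixed with bovine serum (20:80) and held 1 h at 37° C. Serum-treated samples then reacted with MUGal (4 mM stock) in citrate/McIlvaine buffer (pH 4.3/4.8) for 180 min at 37° C., were quenched with sodium carbonate, and read by fluorescence (Ex 355, Em 448 nm).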

Data set [4] in a line: HTP-analysis of supernatants pretreated with base (MUGal hydrolysis). The following applies: challenge at pH 8.2; activity of the variant/activity of Rd3BB (SEQ ID NO: 13); yeast culture supernatant. The method, boiled down:
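GLA variants secreted from yeast INVSc1; culture supernatants pre-incubated with McIlvaine buffer pH 7.0–8.2 or 200 mM bicarbonate pH 9.1–9.7 at 37° C. for 1–18 h. Residual activity: MUGal (4 mM stock) hydrolysis at pH 4.3–4.8, 37° C., 30–180 min, carbonate quench; fluorescence Ex 355/Em 448 nm.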

B1: 308 (protein)
chain: LDNGLARTPTMGWLHWERFMCNLDCQEEPDSCISEKLFMEMAELMVSEGWKDAGYEYLCIDDCWMAPQRDSEGRLQADPQRFPHGIRQLANYVHSIGLKLGIYADVGNKTCAGFPGSFGYYDIDAQTFADWGVDLLKFDGCYCDSLENLADGYKHMSLALNRTGRSIVYSCEWPLYMWPFQKPNYTEIRQYCNHWRNFADIDDSWASIKSILDWTSRNQERIVDVAGPGGWNDPDMLVIGNFGLSWNQQVTQMALWAIMAAPLFMSNDLRHISPQAKALLQDKDVIAINQDPLGKQGYQLRQGDNFEVWERPLSGLAWAVAIINRQEIGGPRSYTIAVASLGKGVACNPACFITQLLPVKRKLGFYNWSSRLKSHINPTGTVLLQLENTMQMSLKDLL
modifications: Synthetic Polypeptide sequence of Variant No. 308 of mature Human GLA
In the case of B1, the “Relative Activity of GLA Variants After Challenge at pH 4.0” value (from here on “Relative Activity … at pH 4.0”) in data set [1] was “− (− = <0.5 relative activity to Rd3BB (SEQ ID NO: 13))”. The “Relative Activity of GLA Variants After No Challenge (NC)” value in data set [2] is reported as “− (− = <0.5 relative activity to Rd3BB (SEQ ID NO: 13))”. Further, the “Relative Activity of GLA Variants After Challenge with Serum” value (from here on “Relative Activity … with Serum”) in data set [3] is given as “+ (+ = 0.5 to 1.5 relative activity over Rd3BB (SEQ ID NO: 13))”. The “Relative Activity of GLA Variants After Challenge at pH 8.2” value (shortened to “Relative Activity … at pH 8.2”) in data set [4] is “− (− = <0.5 relative activity to Rd3BB (SEQ ID NO: 13))”.

B2: 312 (protein)
chain: LDNGLARTPTMGWLHWERFMCNLDCQEEPDSCISEKLFMEMAELMVSEGWKDAGYEYLCIDDCWMAPQRDSEGRLQADPQRFPHGIRQLANYVHSIGLKLGIYADVGNKTCAGFPGSFGYYDIDAQTFADWGVDLLKFDGCYCDSLENLADGYKHMSLALNRTGRSIVYSCEWPLYMWPFQKPNYTEIRQYCNHWRNFADIDDSWASIKSILDWTSFNQERIVDVAGPGGWNDPDMLVIGNFGLSWDQQVTQMALWAIMAAPLFMSNDLRHISPQAKALLQDKDVIAINQDPLGKQGYQLRKGDNFEVWERPLSGDAWAVAIINRQEIGGPRSYTIPVASLGKGVACNPGCFITQLLPVKRQLGFYNWTSRLKSHINPTGTVLLQLENTMQMSLKDLL
modifications: Synthetic Polypeptide sequence of Variant No. 312 of mature Human GLA
For B2, in data set [1], the “Relative Activity … at pH 4.0” value is listed as “+++ (+++ = >2.5 relative activity over Rd3BB (SEQ ID NO: 13))”. The “Relative Activity of GLA Variants After No Challenge (NC)” value in data set [2] is reported as “++ (++ = >1.5 to 2.5 relative activity over Rd3BB (SEQ ID NO: 13))”. Besides, the “Relative Activity … with Serum” value in data set [3] is given as “+++ (+++ = >2.5 relative activity over Rd3BB (SEQ ID NO: 13))”. The “Relative Activity … at pH 8.2” value in data set [4] is recorded as “+++ (+++ = >2.5 relative activity over Rd3BB (SEQ ID NO: 13))”.

B3: 309 (protein)
chain: LDNGLARTPTMGWLHWERFMCNLDCQEEPDSCISEKLFMEMAELMVSEGWKDAGYEYLCIDDCWMAPQRDSEGRLQADPQRFPHGIRQLANYVHSIGLKLGIYADVGNKTCAGFPGSFGYYDIDAQTFADWGVDLLKFDGCYCDSLENLADGYKHMSLALNRTGRSIVYSCEWPLYMWPFQKPNYTEIRQYCNHWRNFADIDDSWASIKSILDWTSRNQERIVDVAGPGGWNDPDMLVIGNFGLSWDQQVTQMALWAIMAAPLFMSNDLRHISPQAKALLQDKDVIAINQDPLGKQGYQLRKGDNFEVWERPLSGLAWAVAIINRQEIGGPRSYTIPVASLGGGVACNPGCFITQLLPVKRKLGFYNWTSRLKSHINPTGTVLLQLENTMQMSLKDLL
modifications: Synthetic Polypeptide sequence of Variant No. 309 of mature Human GLA
As for B3, the “Relative Activity … at pH 4.0” value in data set [1] is given as “++ (++ = >1.5 to 2.5 relative activity over Rd3BB (SEQ ID NO: 13))”. The “Relative Activity of GLA Variants After No Challenge (NC)” value in data set [2] is “+ (+ = 0.5 to 1.5 relative activity over Rd3BB (SEQ ID NO: 13))”. For the same molecule, the “Relative Activity … with Serum” value in data set [3] was “++ (++ = >1.5 to 2.5 relative activity over Rd3BB (SEQ ID NO: 13))”. In data set [4], the “Relative Activity … at pH 8.2” value is given as “+++ (+++ = >2.5 relative activity over Rd3BB (SEQ ID NO: 13))”.

B4: 313 (protein)
chain: LDNGLARTPTMGWLHWERFMCNLDCQEEPDSCISEKLFMEMAELMVSEGWKDAGYEYLCIDDCWMAPQRDSEGRLQADPQRFPHGIRQLANYVHSKGLKFGIYADVGNKTCAGFPGSFGYYDIDSQTFADWGVDLLKFDGCYCDSLENLADGYKHMSLALNRTGRSIVYSCEWPLYMWPFQKPNYTEIRQYCNHWRNFADIDDSWASVKSILDWTSFNQEKIVDVAGPGGWNDPDMLVIGNFGLSWNQQVTQMALWAIMAAPLFMSNDLRHISPQAKALLQDKDVIAINQDPLGKQGYQLRKGDNFEVWERPLSGLAWAVAIINRQEIGGPRSYTIAVASLGGGVACNPACFITQLLPVKRKLGFYNWTSRLKSHINPTGTVLLQLENTMQMSLKDLL
modifications: Synthetic Polypeptide sequence of Variant No. 313 of mature Human GLA
In the case of B4, the “Relative Activity … at pH 4.0” value in data set [1] is “+ (+ = 0.5 to 1.5 relative activity over Rd3BB (SEQ ID NO: 13))”. Besides, the “Relative Activity of GLA Variants After No Challenge (NC)” value in data set [2] is reported as “+ (+ = 0.5 to 1.5 relative activity over Rd3BB (SEQ ID NO: 13))”. For the same molecule, in data set [3], the “Relative Activity … with Serum” value is listed as “+ (+ = 0.5 to 1.5 relative activity over Rd3BB (SEQ ID NO: 13))”. Besides, the “Relative Activity … at pH 8.2” value in data set [4] is given as “− (− = <0.5 relative activity to Rd3BB (SEQ ID NO: 13))”.

B5: 314 (protein)
chain: LDNGLARTPTMGWLHWERFMCNLDCQEEPDSCISEKLFMEMAELMVSEGWKDAGYEYLCIDDCWMAPQRDSEGRLQADPQRFPHGIRQLANYVHSKGLKFGIYADVGNKTCAGFPGSFGYYDIDAQTFADWGVDLLKFDGCYCDSLENLADGYKHMSLALNRTGRSIVYSCEWPLYMWPFQKPNYTEIRQYCNHWRNFADIDDSWASVKSILDWTSFNQERIVDVAGPGGWNDPDMLVIGNFGLSWDQQVTQMALWAIMAAPLFMSNDLRHISPQAKALLQDKDVIAINQDPLGKQGYQLRKGDNFEVWERPLSGLAWAVAVINRQEIGGPRSYTIAVASLGDGVACNPACFITQLLPVKRKLGFYNWTSRLKSHVNPTGTVLLQLENTMQMSLKDLL
modifications: Synthetic Polypeptide sequence of Variant No. 314 of mature Human GLA
For B5, the “Relative Activity … at pH 4.0” value in data set [1] was “++ (++ = >1.5 to 2.5 relative activity over Rd3BB (SEQ ID NO: 13))”. For the same molecule, in data set [2], the “Relative Activity of GLA Variants After No Challenge (NC)” value is on record as “+ (+ = 0.5 to 1.5 relative activity over Rd3BB (SEQ ID NO: 13))”. In addition, the “Relative Activity … with Serum” value in data set [3] was “+ (+ = 0.5 to 1.5 relative activity over Rd3BB (SEQ ID NO: 13))”. The “Relative Activity … at pH 8.2” value in data set [4] was “++ (++ = >1.5 to 2.5 relative activity over Rd3BB (SEQ ID NO: 13))”.

B6: 311 (protein)
chain: LDNGLARTPTMGWLHWERFMCNLDCQEEPDSCISEKLFMEMAELMVSEGWKDAGYEYLCIDDCWMAPQRDSEGRLQADPQRFPHGIRQLANYVHSIGLKLGIYADVGNKTCAGFPGSFGYYDIDAQTFADWGVDLLKFDGCYCDSLENLADGYKHMSLALNRTGRSIVYSCEWPLYMWPFQKPNYTEIRQYCNHWRNFADIDDSWASIKSILDWTSFNQERIVDVAGPGGWNDPDMLVIGNFGLSWDQQVTQMALWAIMAAPLFMSNDLRHISPQAKALLQDKDVIAINQDPLGKQGYQLRKGDNFEVWERPLSGDAWAVAIINRQEIGGPRSYTIPVASLGKGVACNPGCFITQLLPVKRKLGFYNWSSRLKSHINPTGTVLLQLENTMQMSLKDLL
modifications: Synthetic Polypeptide sequence of Variant No. 311 of mature Human GLA
As to B6, the “Relative Activity … at pH 4.0” value in data set [1] is reported as “+ (+ = 0.5 to 1.5 relative activity over Rd3BB (SEQ ID NO: 13))”. Moreover, the “Relative Activity of GLA Variants After No Challenge (NC)” value in data set [2] is “+ (+ = 0.5 to 1.5 relative activity over Rd3BB (SEQ ID NO: 13))”. Besides, in data set [3], the “Relative Activity … with Serum” value is recorded as “+ (+ = 0.5 to 1.5 relative activity over Rd3BB (SEQ ID NO: 13))”. The “Relative Activity … at pH 8.2” value in data set [4] is recorded as “++ (++ = >1.5 to 2.5 relative activity over Rd3BB (SEQ ID NO: 13))”.

B7: 310 (protein)
chain: LDNGLARTPTMGWLHWERFMCNLDCQEEPDSCISEKLFMEMAELMVSEGWKDAGYEYLCIDDCWMAPQRDSEGRLQADPQRFPHGIRQLANYVHSIGLKLGIYADVGNKTCAGFPGSFGYYDIDAQTFADWGVDLLKFDGCYCDSLENLADGYKHMSLALNRTGRSIVYSCEWPLYMWPFQKPNYTEIRQYCNHWRNFADIDDSWASIKSILDWTSFNQERIVDVAGPGGWNDPDMLVIGNFGLSWDQQVTQMALWAIMAAPLFMSNDLRHISPQAKALLQDKDVIAINQDPLGKQGYQLRQGDNFEVWERPLSGLAWAVAIINRQEIGGPRSYTIAVASLGKGVACNPGCFITQLLPVKRKLGFYNWSSRLKSHINPTGTVLLQLENTMQMSLKDLL
modifications: Synthetic Polypeptide sequence of Variant No. 310 of mature Human GLA
As for B7, the “Relative Activity … at pH 4.0” value in data set [1] is listed as “+ (+ = 0.5 to 1.5 relative activity over Rd3BB (SEQ ID NO: 13))”. Further, in data set [2], the “Relative Activity of GLA Variants After No Challenge (NC)” value is listed as “− (− = <0.5 relative activity to Rd3BB (SEQ ID NO: 13))”. In addition, in data set [3], the “Relative Activity … with Serum” value is recorded as “+ (+ = 0.5 to 1.5 relative activity over Rd3BB (SEQ ID NO: 13))”. Moreover, the “Relative Activity … at pH 8.2” value in data set [4] is recorded as “+ (+ = 0.5 to 1.5 relative activity over Rd3BB (SEQ ID NO: 13))”.
